Source: publication PMC5389561 (Nucleic Acids Research, 2016)

Key:
[1] = target: Csm2 with a 6-His tag on the N-terminus (Csm2^H6N) (S. epidermidis RP62a); experiment: co-purification
[2] = target: recombinant Csm3 (untagged) (S. epidermidis); experiment: native gel or EMSA
native gel or EMSA = target: the molecule itself; experiment: native gel or EMSA
[3] = target: Csm5–Smt3 (Csm5 with an N-terminal His10Smt3 tag) (S. epidermidis); experiment: pull-down

## Csm3 (wild type, in the Cas10–Csm complex) (natural protein)
[1]
  % Csm3 band intensity of the total band intensity of the purified complex: 18%

## Csm3 D179A (in the Cas10–Csm complex) (natural protein)
[1]
  % Csm3 band intensity of the total band intensity of the purified complex: 12%

## recombinant Csm3 (untagged) (natural protein)
[2]
  stoichiometry N: 6

B1: recombinant polynucleotide phosphorylase (PNPase), untagged (enzyme, S. epidermidis RP62a, UniProt Q5HPR7 1-701, looked up)
chain: MSQEKKVFKTEWAGRSLTIETGQLAKQANGAVLVRYGDTVVLSTATASKEPRDGDFFPLTVNYEEKMYAAGKIPGGFKKREGRPGDEATLTARLIDRPIRPLFPKGYRHDVQIMNIVLSADPDCSPEMAAMIGSSMALSVSDIPFQGPIAGVNVGYIDGKYVINPSVADKEISRLDLEVAGHKDAVNMVEAGASEITESEMLEAIFFGHEEIKRLVAFQQEIIDHIQPIKQEFVPVERDEDLVEKVKSLTEDKGLKDTVLTFDKQQRDENLDALKEEVVGHFLDEEDPENETLVKEVYAILNDLIKEEVRRLIADEKIRPDGRKVDEIRPLESEVGLLPRAHGSGLFTRGQTQALSVLTLGALGDYQLIDGLGPEVEKRFMHHYNFPNFSVGETGPVRAPGRREIGHGALGERALRYIIPDTQDFPYTIRIVSEVLESNGSSSQASICGSTLALMDAGVPIKAPVAGIAMGLVTRDDSYTILTDIQGMEDALGDMDFKVAGTKDGITAIQMDIKIDGLTREVIEEALEQARQGRLAIMDHMLHTIEQPREELSAYAPKVVTMSINPDKIRDVIGPGGKKINEIIDETGVKLDIEQDGTIFIGAVDQAMINRAKEIIEDITREAEVGQVYHAKVKRIEKYGAFVELFPGKDALLHISQISQERINKVEDVLKIGDTIEVKITEIDKQGRVNASHKVLEQSKN
Native gel or EMSA
  stoichiometry N: 3
[3]
  PNPase signal intensity as % of total signal in the eluate: 5.9%
